# Reference: PMC7763939
# Assays:
# [1] = target: PKSIII Mo29 Red (truncated/reduced type III polyketide synthase of Naganishia uzbekistanensis strain Mo29, without the 74 aa C-terminus extension) (Naganishia uzbekistanensis strain Mo29 (UBOCC-A-208024)); test: SEC + other: dynamic light scattering; Sephacryl-200 gel filtration column, 50 mM Tris-HCl pH 7.5, 200 mM NaCl, size calculated with marker; DLS on a DynaPro-801; monomer to dimer
# [2] = target: PKSIII Mo29 Std (type III polyketide synthase of Naganishia uzbekistanensis strain Mo29, whole protein with the C-terminus extension) (Naganishia uzbekistanensis strain Mo29 (UBOCC-A-208024)); test: as above
stoichiometry N [1],stoichiometry N [2],Substance
2,,"PKSIII Mo29 Red (truncated/reduced type III polyketide synthase of Naganishia uzbekistanensis strain Mo29, without the 74 aa C-terminus extension) (domain or fragment)"
,2,"PKSIII Mo29 Std (type III polyketide synthase of Naganishia uzbekistanensis strain Mo29, whole protein with the C-terminus extension) (enzyme)"
